In assay [1] the target is T1, Human CD37 (human, UniProt P11049 1-278).
T1 construct: also called huCD37; GP52-40
T1 sequence: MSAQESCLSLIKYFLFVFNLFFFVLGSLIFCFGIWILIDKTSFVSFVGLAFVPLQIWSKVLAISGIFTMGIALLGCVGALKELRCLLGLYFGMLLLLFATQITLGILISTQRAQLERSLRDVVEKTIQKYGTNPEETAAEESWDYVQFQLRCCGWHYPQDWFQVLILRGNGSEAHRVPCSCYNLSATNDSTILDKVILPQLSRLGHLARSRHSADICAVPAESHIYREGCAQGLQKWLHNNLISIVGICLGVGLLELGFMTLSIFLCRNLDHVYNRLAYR
Description: flow cytometry on human tumor cells expressing human CD37. Background: In flow cytometry, cells or beads pass a laser one at a time.

In the next assay the target is T2, Murine CD37 (murine, UniProt Q61470 1-281).
T2 construct: Endogenous muCD37 on 300-19 murine pre-B cells and on wild type mouse spleen B cells; also called muCD37
T2 sequence: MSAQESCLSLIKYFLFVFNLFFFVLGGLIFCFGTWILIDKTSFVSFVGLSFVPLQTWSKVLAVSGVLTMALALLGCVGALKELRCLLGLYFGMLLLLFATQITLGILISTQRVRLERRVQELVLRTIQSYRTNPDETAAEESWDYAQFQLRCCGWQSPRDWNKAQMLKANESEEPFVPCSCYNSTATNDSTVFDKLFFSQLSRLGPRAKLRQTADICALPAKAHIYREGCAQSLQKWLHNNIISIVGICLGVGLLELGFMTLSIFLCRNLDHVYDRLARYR
Description: flow cytometry titration on 300-19 murine pre-B cells expressing muCD37; anti-muIgG-PE detection; EC50 of the curve taken as the apparent Kd. The procedure:
Cells were then washed and counterstained with anti muIgG-PE conjugate (Jackson Immunoresearch, West Grove, Pa.) for 30 minutes at 4° C. The cells were finally washed, fixed in formalin and analyzed by flow cytometry using a FACSarray (BD Bioscience, San Jose, Calif.). The flow cytometry data were analyzed using FlowJo (Tree Star Inc., Ashland, Oreg.) and the geometric mean fluorescence intensity was plotted against the antibody concentration in a semi-log plot (FIG. 8). A dose-response curve was generated by non-linear regression and the EC50 value of the curve, which corresponds to the apparent dissociation constant (Kd) of the antibody, was calculated using GraphPad Prism (GraphPad Software Inc., La Jolla, Calif.).

Assay [2] has as its target T1, Human CD37. Put plainly: cell-based or functional assay.

B1: anti-muCD37 monoclonal antibody clone 252-3 (antibody, mouse IgG2a, V domains shown)
VH: EVQVVESGGDLVKPGGSLKLSCAASGFTFSSYGMSWVRQTPDKRLEWVATISSGGSYTYSPDSVKGRFTISRDNAKKTLYLQMSSLKSEDTAMYYCARHSYYDTSVDYWGQGTSVTVSS
VL: DIQMTQTTSSLSASLGDRVTISCRASQDISNYLNWYQQKPDGTVKLLIYYTSKLHSGVPSRFSGSGSGTDYSLTISNLEQEDIATYFCQQGNALPWTFGGGTKLELKR
Regarding B1, the binding result with Human CD37 [1] is on record as “no binding”. The Kd with Murine CD37 turned out to be 14 nM.

B2: huCD37-3 (antibody, V domains shown)
VH: QVQVQESGPGLVAPSQTLSITCTVSGFSLTTSGVSWVRQPPGKGLEWLGVIWGDGSTNYHPSLKSRLSIKKDHSKSQVFLKLNSLTAADTATYYCAKGGYSLAHWGQGTLVTVSS
VL: DIQMTQSPSSLSVSVGERVTITCRASENIRSNLAWYQQKPGKSPKLLVNVATNLADGVPSRFSGSGSGTDYSLKINSLQPEDFGTYYCQHYWGTTWTFGQGTKLEIKR
Consider B2, for which the “in vitro depletion of B-cells, whole human blood, 10 µg/mL, one donor” value (“in vitro depletion of B-cells” for short) with Human CD37 [2] is ~40%.

B3: huCD37-3-SMCC-DM1 (antibody, V domains shown)
VH: B2 VH
VL: B2 VL
modifications: DM1 maytansinoid linked via SMCC; sites, chain and drug load in the assay not stated
Regarding B3, in the assay with Human CD37 [2], the “EC50 of in vitro B-cell depletion, purified human PBMCs, two donors” value was in the range of 40 to 75 ng/mL and the “in vitro depletion of B-cells” value is ~40%.

B4: huCD37-50 (antibody, human IgG1, kappa, V domains shown)
VH: QVQLQESGPGLLKPSQSLSLTCTVSGYSITSGFAWHWIRQHPGNKLEWMGYILYSGSTVYSPSLKSRISITRDTSKNHFFLQLNSVTAADTATYYCARGYYGYGAWFAYWGQGTLVTVSA
VL: EIVLTQSPATMSASPGERVTMTCSATSSVTYMHWYQQKPGQSPKRWIYDTSNLPYGVPARFSGSGSGTSYSLTISSMEAEDAATYYCQQWSDNPPTFGQGTKLEIKR
In the case of B4, the “in vitro depletion of B-cells” value with Human CD37 [2] was ~40%.

B5: huCD37-50-SMCC-DM1 (antibody, human IgG1, kappa, V domains shown)
VH: B4 VH
VL: B4 VL
modifications: DM1 maytansinoid linked via SMCC; sites, chain and drug load in the assay not stated
As for B5, the “in vitro depletion of B-cells” value with Human CD37 [2] is ~40%.

(Values after patent US20120276119A1 (IMMUNOGEN, published 2012).)
